Assay results taken from PMC5358978, “Nuclear export receptor CRM1 recognizes diverse conformations in nuclear export signals” (eLife, 2017).

Target: human CRM1 (HsCRM1), wild type (human) (UniProt O14980)
Assay: differential bleaching; competition titration of MBP-NES to FITC-PKI NES and CRM1 with excess RanGTP; triplicate; fitted with a set of direct titrations

Chain of human CRM1 (HsCRM1), wild type (human) (O14980 whole entry): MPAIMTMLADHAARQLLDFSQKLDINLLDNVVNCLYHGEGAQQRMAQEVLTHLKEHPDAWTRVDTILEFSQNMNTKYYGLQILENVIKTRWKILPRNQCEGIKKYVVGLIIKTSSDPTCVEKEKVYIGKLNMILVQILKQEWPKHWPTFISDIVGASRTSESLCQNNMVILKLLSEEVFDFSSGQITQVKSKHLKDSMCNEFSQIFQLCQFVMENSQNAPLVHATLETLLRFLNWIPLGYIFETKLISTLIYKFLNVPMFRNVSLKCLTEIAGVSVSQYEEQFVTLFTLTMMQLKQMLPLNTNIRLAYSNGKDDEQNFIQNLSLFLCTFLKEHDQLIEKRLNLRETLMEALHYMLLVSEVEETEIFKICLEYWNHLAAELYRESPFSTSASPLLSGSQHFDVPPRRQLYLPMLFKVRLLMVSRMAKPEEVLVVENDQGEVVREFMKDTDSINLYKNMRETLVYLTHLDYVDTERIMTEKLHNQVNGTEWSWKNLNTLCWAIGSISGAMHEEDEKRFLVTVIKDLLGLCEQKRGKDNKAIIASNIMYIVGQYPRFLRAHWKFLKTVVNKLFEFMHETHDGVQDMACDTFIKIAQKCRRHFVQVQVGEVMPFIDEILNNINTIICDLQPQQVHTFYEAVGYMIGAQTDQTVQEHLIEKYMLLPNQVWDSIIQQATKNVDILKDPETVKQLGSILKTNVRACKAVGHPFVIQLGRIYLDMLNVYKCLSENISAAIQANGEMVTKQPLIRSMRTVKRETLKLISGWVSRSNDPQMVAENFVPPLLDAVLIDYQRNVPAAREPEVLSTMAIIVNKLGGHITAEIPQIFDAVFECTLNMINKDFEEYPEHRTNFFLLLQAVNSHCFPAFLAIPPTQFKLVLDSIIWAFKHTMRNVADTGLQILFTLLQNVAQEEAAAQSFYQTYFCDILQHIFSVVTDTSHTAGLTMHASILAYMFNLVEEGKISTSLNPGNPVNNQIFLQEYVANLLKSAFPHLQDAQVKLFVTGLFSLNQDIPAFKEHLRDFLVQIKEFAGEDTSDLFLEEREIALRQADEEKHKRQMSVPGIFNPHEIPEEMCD

Kd: 9.1 µM
Substance: MBP-mDia2 NES(Φ0A) mutant (peptide)
